What was measured:
ABCD1 (human) = ABCD1 (human) (UniProt P33897); assay: IgG control IP from lysate of C-FLAG B3GNT2 cells, mass spectrometry
ACSL3 (human) = ACSL3 (human) (UniProt O95573); assay: as above
AIFM1 (human) = AIFM1 (human) (UniProt O95831); assay: as above
ATAD3A (human) = ATAD3A (human) (UniProt Q9NVI7); assay: as above
DNAJA3 (human) = DNAJA3 (human) (UniProt Q96EY1); assay: as above
ELOC (human) = ELOC (human) (UniProt Q15369); assay: as above
ERP44 (human) = ERP44 (human) (UniProt Q9BS26); assay: as above
FBXO6 (human) = FBXO6 (human) (UniProt Q9NRD1); assay: as above
HDGFL2 (human) = HDGFL2 (human) (UniProt Q7Z4V5); assay: as above
HSP90AB1 (human) = HSP90AB1 (human) (UniProt P08238); assay: as above
IFI16 (human) = IFI16 (human) (UniProt Q16666); assay: as above
IPO7 (human) = IPO7 (human) (UniProt O95373); assay: as above
KPNB1 (human) = KPNB1 (human) (UniProt Q14974); assay: as above
KTN1 (human) = KTN1 (human) (UniProt Q86UP2); assay: as above
LARP4 (human) = LARP4 (human) (UniProt Q71RC2); assay: as above
LDHA (human) = LDHA (human) (UniProt P00338); assay: as above
NTPCR (human) = NTPCR (human) (UniProt Q9BSD7); assay: as above
PDIA4 (human) = PDIA4 (human) (UniProt P13667); assay: as above
PGAM5 (human) = PGAM5 (human) (UniProt Q96HS1); assay: as above
PSMA5 (human) = PSMA5 (human) (UniProt P28066); assay: as above
PSMB6 (human) = PSMB6 (human) (UniProt P28072); assay: as above
PSMC2 (human) = PSMC2 (human) (UniProt P35998); assay: as above
PXN (human) = PXN (human) (UniProt P49023); assay: as above
RCN1 (human) = RCN1 (human) (UniProt Q15293); assay: as above
RPL15 (human) = RPL15 (human) (UniProt P61313); assay: as above
RPS6 (human) = RPS6 (human) (UniProt P62753); assay: as above
RRBP1 (human) = RRBP1 (human) (UniProt Q9P2E9); assay: as above
SFXN3 (human) = SFXN3 (human) (UniProt Q9BWM7); assay: as above
SLC25A22 (human) = SLC25A22 (human) (UniProt Q9H936); assay: as above
STAU1 (human) = STAU1 (human) (UniProt O95793); assay: as above
TECR (human) = TECR (human) (UniProt Q9NZ01); assay: as above
TUBA1C (human) = TUBA1C (human) (UniProt Q9BQE3); assay: as above
UBTF (human) = UBTF (human) (UniProt P17480); assay: as above
ZRANB2 (human) = ZRANB2 (human) (UniProt O95218); assay: as above
DNAJC3 (human) = DNAJC3 (human) (UniProt Q13217); assay: co-IP, anti-FLAG, lysate of cells with C-FLAG B3GNT2; mass spectrometry
EIF5B (human) = EIF5B (human) (UniProt O60841); assay: as above
PUM1 (human) = PUM1 (human) (UniProt Q14671); assay: as above
RPL10 (human) = RPL10 (human) (UniProt P27635); assay: as above
RPL4 (human) = RPL4 (human) (UniProt P36578); assay: as above

ABCD1 (human), sequence (P33897 whole entry): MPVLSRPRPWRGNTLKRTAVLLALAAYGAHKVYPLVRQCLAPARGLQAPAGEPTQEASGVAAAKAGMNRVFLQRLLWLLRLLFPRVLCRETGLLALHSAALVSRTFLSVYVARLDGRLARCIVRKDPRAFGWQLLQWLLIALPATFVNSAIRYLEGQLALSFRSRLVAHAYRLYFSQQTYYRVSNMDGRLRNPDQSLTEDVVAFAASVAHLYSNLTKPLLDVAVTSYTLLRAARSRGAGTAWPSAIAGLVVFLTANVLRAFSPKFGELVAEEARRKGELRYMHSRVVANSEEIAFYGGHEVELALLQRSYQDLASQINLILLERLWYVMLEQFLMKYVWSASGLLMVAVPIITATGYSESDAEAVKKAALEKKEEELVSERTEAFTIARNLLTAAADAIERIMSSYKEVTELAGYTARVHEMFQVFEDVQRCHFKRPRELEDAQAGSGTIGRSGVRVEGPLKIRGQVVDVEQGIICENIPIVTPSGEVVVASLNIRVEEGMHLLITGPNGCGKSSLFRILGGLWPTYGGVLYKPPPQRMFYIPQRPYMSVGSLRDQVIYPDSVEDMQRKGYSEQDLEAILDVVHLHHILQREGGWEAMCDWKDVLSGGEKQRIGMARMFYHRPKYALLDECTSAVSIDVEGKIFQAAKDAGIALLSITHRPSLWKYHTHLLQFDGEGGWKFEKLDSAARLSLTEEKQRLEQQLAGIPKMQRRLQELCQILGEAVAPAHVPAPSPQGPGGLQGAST
SFXN3 (human), sequence (Q9BWM7 whole entry): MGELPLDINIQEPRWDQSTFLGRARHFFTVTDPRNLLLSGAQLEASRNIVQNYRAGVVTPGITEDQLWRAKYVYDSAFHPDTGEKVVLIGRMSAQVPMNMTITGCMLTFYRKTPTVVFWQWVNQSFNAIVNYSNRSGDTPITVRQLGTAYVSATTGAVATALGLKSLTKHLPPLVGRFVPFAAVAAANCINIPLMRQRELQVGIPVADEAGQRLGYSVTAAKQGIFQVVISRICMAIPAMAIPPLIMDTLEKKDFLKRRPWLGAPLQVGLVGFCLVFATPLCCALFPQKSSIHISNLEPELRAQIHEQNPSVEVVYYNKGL
PGAM5 (human), sequence (Q96HS1 whole entry): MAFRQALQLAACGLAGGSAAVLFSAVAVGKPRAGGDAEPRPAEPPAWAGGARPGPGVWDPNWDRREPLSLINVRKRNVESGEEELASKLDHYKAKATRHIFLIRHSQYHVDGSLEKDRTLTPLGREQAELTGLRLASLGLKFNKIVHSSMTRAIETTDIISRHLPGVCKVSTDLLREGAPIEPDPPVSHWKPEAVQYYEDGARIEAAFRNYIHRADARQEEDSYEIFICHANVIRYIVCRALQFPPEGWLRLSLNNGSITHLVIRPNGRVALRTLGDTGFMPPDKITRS
ACSL3 (human), sequence (O95573 whole entry): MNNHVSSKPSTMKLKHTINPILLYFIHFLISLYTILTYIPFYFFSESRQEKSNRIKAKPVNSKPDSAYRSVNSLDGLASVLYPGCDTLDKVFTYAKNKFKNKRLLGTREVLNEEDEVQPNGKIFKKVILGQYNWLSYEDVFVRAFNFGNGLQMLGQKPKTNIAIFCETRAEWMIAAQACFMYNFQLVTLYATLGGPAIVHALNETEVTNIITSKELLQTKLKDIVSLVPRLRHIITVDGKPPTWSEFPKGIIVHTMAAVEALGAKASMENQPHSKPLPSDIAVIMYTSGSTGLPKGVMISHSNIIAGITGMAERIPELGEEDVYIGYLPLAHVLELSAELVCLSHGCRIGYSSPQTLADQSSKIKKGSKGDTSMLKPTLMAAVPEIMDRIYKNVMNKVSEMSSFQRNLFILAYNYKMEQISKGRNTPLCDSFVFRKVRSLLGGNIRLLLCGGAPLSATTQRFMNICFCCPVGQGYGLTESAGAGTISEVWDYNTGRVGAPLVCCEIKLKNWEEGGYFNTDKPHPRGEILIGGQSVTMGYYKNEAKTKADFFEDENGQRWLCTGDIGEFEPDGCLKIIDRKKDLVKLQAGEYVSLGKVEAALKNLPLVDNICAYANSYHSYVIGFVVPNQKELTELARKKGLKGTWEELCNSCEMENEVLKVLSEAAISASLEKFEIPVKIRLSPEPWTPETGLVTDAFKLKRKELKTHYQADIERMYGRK
PSMC2 (human), sequence (P35998 2-433 limits assumed): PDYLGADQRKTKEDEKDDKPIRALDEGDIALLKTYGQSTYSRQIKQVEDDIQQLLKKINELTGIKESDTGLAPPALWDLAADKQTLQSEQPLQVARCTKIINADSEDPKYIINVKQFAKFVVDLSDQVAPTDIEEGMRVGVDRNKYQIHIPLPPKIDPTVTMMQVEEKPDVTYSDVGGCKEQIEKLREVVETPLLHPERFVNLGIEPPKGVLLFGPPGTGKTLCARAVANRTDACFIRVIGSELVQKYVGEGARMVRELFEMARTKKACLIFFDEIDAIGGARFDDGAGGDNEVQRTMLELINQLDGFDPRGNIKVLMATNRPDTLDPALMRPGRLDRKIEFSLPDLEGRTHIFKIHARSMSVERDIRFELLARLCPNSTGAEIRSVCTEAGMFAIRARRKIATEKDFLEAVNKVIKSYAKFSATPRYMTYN
SLC25A22 (human), sequence (Q9H936 whole entry): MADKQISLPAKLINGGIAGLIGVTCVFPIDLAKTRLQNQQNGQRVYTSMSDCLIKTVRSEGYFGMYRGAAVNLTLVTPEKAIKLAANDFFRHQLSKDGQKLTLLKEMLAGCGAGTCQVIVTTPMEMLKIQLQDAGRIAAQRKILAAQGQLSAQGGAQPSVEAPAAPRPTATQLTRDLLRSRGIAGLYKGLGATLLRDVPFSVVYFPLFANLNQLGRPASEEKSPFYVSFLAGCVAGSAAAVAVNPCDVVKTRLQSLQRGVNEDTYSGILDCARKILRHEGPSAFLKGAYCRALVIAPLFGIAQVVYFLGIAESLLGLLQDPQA
UBTF (human), sequence (P17480 other isoform, or with tags, fused parts or gaps limits assumed): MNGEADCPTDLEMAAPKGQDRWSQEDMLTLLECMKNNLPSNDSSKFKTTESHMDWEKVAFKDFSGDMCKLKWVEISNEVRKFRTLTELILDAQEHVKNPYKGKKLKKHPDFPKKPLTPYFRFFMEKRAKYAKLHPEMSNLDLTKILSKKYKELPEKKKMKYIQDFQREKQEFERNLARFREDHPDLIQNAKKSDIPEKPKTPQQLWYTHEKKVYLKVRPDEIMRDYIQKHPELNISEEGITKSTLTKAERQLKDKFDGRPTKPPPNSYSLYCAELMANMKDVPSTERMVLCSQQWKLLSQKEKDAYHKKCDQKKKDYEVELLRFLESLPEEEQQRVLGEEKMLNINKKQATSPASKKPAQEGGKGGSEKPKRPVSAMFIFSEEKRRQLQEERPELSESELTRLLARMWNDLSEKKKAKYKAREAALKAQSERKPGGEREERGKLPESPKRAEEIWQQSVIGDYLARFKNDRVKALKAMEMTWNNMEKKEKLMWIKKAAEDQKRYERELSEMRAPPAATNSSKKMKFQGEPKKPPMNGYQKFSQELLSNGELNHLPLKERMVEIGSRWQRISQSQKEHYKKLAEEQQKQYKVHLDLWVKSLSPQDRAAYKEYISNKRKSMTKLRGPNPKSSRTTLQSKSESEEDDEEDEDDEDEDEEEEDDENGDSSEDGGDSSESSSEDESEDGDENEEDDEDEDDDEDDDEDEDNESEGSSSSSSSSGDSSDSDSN
IPO7 (human), sequence (O95373 whole entry): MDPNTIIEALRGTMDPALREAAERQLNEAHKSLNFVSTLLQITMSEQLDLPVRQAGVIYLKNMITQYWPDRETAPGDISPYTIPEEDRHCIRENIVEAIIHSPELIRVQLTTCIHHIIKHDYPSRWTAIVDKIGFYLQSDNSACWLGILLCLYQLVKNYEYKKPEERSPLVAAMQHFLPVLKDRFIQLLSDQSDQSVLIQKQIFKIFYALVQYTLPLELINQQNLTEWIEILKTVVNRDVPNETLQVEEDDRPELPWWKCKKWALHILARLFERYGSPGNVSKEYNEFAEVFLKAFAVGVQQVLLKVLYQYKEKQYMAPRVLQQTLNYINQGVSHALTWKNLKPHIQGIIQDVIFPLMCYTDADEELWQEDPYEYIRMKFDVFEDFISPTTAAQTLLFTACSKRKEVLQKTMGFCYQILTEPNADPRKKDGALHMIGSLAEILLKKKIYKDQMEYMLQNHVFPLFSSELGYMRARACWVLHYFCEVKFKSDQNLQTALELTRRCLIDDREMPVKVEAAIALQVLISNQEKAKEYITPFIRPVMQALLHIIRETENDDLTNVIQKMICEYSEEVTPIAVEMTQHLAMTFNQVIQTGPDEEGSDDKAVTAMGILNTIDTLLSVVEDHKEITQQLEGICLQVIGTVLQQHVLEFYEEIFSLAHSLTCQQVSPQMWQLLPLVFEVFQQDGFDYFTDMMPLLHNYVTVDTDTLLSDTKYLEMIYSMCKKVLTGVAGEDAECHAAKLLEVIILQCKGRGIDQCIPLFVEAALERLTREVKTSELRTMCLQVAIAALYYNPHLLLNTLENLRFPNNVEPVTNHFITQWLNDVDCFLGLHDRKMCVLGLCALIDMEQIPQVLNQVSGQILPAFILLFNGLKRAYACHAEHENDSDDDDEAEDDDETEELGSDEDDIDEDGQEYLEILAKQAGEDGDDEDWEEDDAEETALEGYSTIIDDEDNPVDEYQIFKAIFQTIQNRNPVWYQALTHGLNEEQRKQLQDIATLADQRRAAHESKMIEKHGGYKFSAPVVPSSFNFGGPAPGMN
ELOC (human), sequence (Q15369 whole entry): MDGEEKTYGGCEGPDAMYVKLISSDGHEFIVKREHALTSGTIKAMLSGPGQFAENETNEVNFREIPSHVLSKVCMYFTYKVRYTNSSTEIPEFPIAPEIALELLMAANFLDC
FBXO6 (human), sequence (Q9NRD1 whole entry): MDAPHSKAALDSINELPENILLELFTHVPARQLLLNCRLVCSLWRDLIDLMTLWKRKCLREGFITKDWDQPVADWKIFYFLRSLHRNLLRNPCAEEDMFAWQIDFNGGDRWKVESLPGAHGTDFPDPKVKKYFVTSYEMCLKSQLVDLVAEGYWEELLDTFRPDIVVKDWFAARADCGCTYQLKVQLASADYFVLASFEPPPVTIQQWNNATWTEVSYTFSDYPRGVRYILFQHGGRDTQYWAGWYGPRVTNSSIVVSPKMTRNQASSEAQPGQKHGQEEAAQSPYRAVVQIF

**Q.** Which co-IP mass spectrometry count (ABCD1 (human)) does the source give for “IgG control (Millipore Sigma 12-371) (antibody)” here?
**A.** 0

**Q.** What about the co-IP mass spectrometry count (ACSL3 (human)) of the same substance?
**A.** 0

**Q.** And the co-IP mass spectrometry count (AIFM1 (human))?
**A.** 0

**Q.** And the co-IP mass spectrometry count (ATAD3A (human))?
**A.** 0

**Q.** And the co-IP mass spectrometry count (DNAJA3 (human))?
**A.** 0

**Q.** And the co-IP mass spectrometry count (ELOC (human))?
**A.** 0

**Q.** What about the co-IP mass spectrometry count (ERP44 (human)) of the same substance?
**A.** 0

**Q.** What about the co-IP mass spectrometry count (FBXO6 (human)) of the same substance?
**A.** 0

**Q.** What about the co-IP mass spectrometry count (HDGFL2 (human)) of the same substance?
**A.** 0

**Q.** And the co-IP mass spectrometry count (HSP90AB1 (human))?
**A.** 2

**Q.** What about the co-IP mass spectrometry count (IFI16 (human)) of the same substance?
**A.** 0

**Q.** And the co-IP mass spectrometry count (IPO7 (human))?
**A.** 0

**Q.** And the co-IP mass spectrometry count (KPNB1 (human))?
**A.** 0

**Q.** And the co-IP mass spectrometry count (KTN1 (human))?
**A.** 0

**Q.** What about the co-IP mass spectrometry count (LARP4 (human)) of the same substance?
**A.** 0

**Q.** What about the co-IP mass spectrometry count (LDHA (human)) of the same substance?
**A.** 0

**Q.** What about the co-IP mass spectrometry count (NTPCR (human)) of the same substance?
**A.** 0

**Q.** And the co-IP mass spectrometry count (PDIA4 (human))?
**A.** 0

**Q.** And the co-IP mass spectrometry count (PGAM5 (human))?
**A.** 0

**Q.** What about the co-IP mass spectrometry count (PSMA5 (human)) of the same substance?
**A.** 0

**Q.** And the co-IP mass spectrometry count (PSMB6 (human))?
**A.** 0

**Q.** And the co-IP mass spectrometry count (PSMC2 (human))?
**A.** 0

**Q.** And the co-IP mass spectrometry count (PXN (human))?
**A.** 0

**Q.** What about the co-IP mass spectrometry count (RCN1 (human)) of the same substance?
**A.** 0

**Q.** What about the co-IP mass spectrometry count (RPL15 (human)) of the same substance?
**A.** 2

**Q.** And the co-IP mass spectrometry count (RPS6 (human))?
**A.** 2

**Q.** And the co-IP mass spectrometry count (RRBP1 (human))?
**A.** 2

**Q.** And the co-IP mass spectrometry count (SFXN3 (human))?
**A.** 0

**Q.** What about the co-IP mass spectrometry count (SLC25A22 (human)) of the same substance?
**A.** 0

**Q.** What about the co-IP mass spectrometry count (STAU1 (human)) of the same substance?
**A.** 0

**Q.** And the co-IP mass spectrometry count (TECR (human))?
**A.** 0

**Q.** And the co-IP mass spectrometry count (TUBA1C (human))?
**A.** 14

**Q.** And the co-IP mass spectrometry count (UBTF (human))?
**A.** 0

**Q.** What about the co-IP mass spectrometry count (ZRANB2 (human)) of the same substance?
**A.** 0

**Q.** What does the source list for “C-terminal FLAG tagged B3GNT2 (from UniProt Q9NY97 1-397) (enzyme)”?
**A.** co-IP mass spectrometry count (DNAJC3 (human)): 3; co-IP mass spectrometry count (EIF5B (human)): 3; co-IP mass spectrometry count (PUM1 (human)): 3; co-IP mass spectrometry count (RPL10 (human)): 15; co-IP mass spectrometry count (RPL4 (human)): 36
